In experiment [1] the target is human c-Met on tumor cells (MKN45, NCI-H358, NCI-H69, LS1034, NCI-H716, MDA-MB-468) (human) (UniProt P08581). Briefly: flow cytometry on LS1034 cells. (In general: In flow cytometry, cells or beads pass a laser one at a time.)
For experiment [2] the target is unchanged. Briefly: flow cytometry on NCI-H69 cells.
The target is the same in experiment [3]. Kind of experiment: flow cytometry on NCI-H358 cells.
Experiment [4] concerns the target h.cMet-ECD-His (Human HGF R/c-MET Protein, His Tag, Acrobiosystems MET-H5227) (human) (UniProt P08581). Briefly: ELISA, h.cMet-ECD-His captured by anti-His-Rabbit Fc.
Experiment [5] addresses human c-Met on tumor cells (MKN45, NCI-H358, NCI-H69, LS1034, NCI-H716, MDA-MB-468) (human) (UniProt P08581). Kind of experiment: flow cytometry on NCI-H716 cells.

Sequence of human c-Met on tumor cells (MKN45, NCI-H358, NCI-H69, LS1034, NCI-H716, MDA-MB-468) (human) (P08581 25-1390): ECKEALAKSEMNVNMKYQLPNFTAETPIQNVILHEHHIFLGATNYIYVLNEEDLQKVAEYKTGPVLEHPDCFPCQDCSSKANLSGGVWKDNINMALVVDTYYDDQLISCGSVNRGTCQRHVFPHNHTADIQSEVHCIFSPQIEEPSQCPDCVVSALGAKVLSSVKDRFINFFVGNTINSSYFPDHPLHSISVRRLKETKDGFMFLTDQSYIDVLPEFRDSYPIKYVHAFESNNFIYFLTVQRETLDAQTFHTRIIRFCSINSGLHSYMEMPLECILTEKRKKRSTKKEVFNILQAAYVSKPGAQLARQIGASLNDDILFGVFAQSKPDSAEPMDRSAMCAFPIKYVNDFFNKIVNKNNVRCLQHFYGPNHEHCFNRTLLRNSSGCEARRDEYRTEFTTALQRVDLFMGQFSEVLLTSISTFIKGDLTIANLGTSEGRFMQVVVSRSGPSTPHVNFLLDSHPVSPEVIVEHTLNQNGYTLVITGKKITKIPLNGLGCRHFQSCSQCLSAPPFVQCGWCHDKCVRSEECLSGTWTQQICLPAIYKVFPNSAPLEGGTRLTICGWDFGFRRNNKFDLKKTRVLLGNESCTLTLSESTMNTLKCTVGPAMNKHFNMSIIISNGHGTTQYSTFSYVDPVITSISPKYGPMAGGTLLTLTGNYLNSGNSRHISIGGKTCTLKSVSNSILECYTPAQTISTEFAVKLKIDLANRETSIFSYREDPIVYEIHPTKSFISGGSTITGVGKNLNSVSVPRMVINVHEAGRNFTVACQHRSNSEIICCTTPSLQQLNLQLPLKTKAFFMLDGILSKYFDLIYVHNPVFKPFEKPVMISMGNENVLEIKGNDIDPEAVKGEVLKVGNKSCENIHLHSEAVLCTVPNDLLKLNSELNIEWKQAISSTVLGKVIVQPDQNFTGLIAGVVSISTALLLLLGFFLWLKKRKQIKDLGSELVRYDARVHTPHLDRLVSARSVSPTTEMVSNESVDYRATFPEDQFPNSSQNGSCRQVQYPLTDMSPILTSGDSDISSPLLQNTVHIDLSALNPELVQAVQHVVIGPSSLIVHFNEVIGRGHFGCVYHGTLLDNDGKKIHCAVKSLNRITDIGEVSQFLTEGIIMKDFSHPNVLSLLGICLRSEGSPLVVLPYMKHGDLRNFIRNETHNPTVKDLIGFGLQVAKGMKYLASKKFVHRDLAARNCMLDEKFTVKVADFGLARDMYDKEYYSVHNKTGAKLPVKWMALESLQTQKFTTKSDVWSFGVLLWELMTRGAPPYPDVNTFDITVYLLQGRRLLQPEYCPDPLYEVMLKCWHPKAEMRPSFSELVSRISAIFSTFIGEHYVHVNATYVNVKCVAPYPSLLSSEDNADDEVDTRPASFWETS
Sequence of h.cMet-ECD-His (Human HGF R/c-MET Protein, His Tag, Acrobiosystems MET-H5227) (human) (P08581 25-932): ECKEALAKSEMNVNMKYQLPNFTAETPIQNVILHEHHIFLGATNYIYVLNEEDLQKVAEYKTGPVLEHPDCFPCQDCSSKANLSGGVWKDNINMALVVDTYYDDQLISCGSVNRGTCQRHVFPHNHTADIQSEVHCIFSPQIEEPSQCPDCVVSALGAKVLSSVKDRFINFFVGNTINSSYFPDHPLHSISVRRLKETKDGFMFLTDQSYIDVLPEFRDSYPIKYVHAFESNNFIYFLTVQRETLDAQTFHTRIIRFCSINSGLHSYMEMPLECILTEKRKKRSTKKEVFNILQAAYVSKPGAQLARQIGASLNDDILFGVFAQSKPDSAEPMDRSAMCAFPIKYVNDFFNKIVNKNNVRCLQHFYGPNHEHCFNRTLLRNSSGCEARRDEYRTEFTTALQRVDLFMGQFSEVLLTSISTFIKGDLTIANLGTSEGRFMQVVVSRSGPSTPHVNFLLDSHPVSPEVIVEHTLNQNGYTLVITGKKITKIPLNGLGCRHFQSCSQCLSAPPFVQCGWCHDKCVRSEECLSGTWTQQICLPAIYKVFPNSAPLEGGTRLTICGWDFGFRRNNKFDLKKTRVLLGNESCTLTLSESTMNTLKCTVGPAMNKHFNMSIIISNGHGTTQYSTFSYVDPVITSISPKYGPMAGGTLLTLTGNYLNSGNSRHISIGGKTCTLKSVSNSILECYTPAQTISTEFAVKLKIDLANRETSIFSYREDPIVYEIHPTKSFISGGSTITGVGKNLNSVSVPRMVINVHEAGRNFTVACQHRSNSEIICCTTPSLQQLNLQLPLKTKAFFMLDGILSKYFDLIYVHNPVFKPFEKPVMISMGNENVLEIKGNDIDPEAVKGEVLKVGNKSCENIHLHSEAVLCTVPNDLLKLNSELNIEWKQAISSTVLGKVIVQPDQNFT

B1: ABT700-vc-MMAE (DAR9.7) (antibody, INN chains, looked up, V domains shown)
VH: QVQLVQSGAEVKKPGASVKVSCKASGYIFTAYTMHWVRQAPGQGLEWMGWIKPNNGLANYAQKFQGRVTMTRDTSISTAYMELSRLRSDDTAVYYCARSEITTEFDYWGQGTLVTVSS
VL: DIVMTQSPDSLAVSLGERATINCKSSESVDSYANSFLHWYQQKPGQPPKLLIYRASTRESGVPDRFSGSGSGTDFTLTISSLQAEDVAVYYCQQSKEDPLTFGGGTKVEIK
modifications: vc-MMAE, DAR 9.7
One may read the EC50 as the concentration giving half of the maximal effect. A higher EC50 goes with a need for much substance. Take B1: the EC50 in experiment [1] amounted to 0.852 nM; in experiment [2] it was 0.212 nM; in experiment [3], 0.917 nM; in experiment [4] it was 2.43 µg/mL. For the same molecule, the Maximum signal value in experiment [1] is 8960; in experiment [2] it was 8210; in experiment [3], 32400.

B2: ABT700-Vc-MMAE (DAR4) (antibody, INN chains, looked up, V domains shown)
VH: B1 VH
VL: B1 VL
modifications: vc-MMAE, DAR 4
Take B2: in experiment [5], the EC50 came to 11.6 nM and the Maximum signal value was 3740.

The values above are taken from patent US20260216354A1, “ANTI-CMET ANTIBODY, ANTIBODY-DRUG CONJUGATE, AND PREPARATION METHOD THEREFOR AND USE THEREOF” (MEDILINK THERAPEUTICS (SUZHOU) CO., LTD., priority 2022, published 2026).
